{"source": "IntAct's records for PubMed 17986188", "parents": {"B1": {"name": "Cell division protein FtsA (Escherichia coli (strain K12)), P0ABH0 (parent)", "chain": "MIKATDRKLVVGLEIGTAKVAALVGEVLPDGMVNIIGVGSCPSRGMDKGGVNDLESVVKCVQRAIDQAELMADCQISSVYLALSGKHISCQNEIGMVPISEEEVTQEDVENVVHTAKSVRVRDEHRVLHVIPQEYAIDYQEGIKNPVGLSGVRMQAKVHLITCHNDMAKNIVKAVERCGLKVDQLIFAGLASSYSVLTEDERELGVCVVDIGGGTMDIAVYTGGALRHTKVIPYAGNVVTSDIAYAFGTPPSDAEAIKVRHGCALGSIVGKDESVEVPSVGGRPPRSLQRQTLAEVIEPRYTELLNLVNEEILQLQEKLRQQGVKHHLAAGIVLTGGAAQIEGLAACAQRVFHTQVRIGAPLNITGLTDYAQEPYYSTAVGLLHYGKESHLNGEAEVEKRVTASVGSWIKRLNSWLRKEF"}, "B2": {"name": "Cell division protein FtsA (Escherichia coli (strain K12)), P0ABH0 (parent)", "chain": "B1 chain", "partner": "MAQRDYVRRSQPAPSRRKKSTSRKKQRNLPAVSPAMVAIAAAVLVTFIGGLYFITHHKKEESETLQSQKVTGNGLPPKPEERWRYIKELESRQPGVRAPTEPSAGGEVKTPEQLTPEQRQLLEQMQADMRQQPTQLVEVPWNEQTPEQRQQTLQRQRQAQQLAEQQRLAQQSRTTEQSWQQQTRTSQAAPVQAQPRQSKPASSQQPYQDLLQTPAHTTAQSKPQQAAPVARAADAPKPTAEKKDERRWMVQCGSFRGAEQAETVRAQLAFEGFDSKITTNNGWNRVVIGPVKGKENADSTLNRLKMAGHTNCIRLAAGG"}}, "data": [{"variants_of": "B1", "conditions": "with ftsz_ecoli ftsZ", "values": [{"variant": "MIKATDRKLVVGLEIGTAKVAALVGEVLPDGMVNIIGVGSCPSRGMDKGGVNDLESVVKCVQRAIDQAPLMADCQISSVYLALSGKHISCQNEIGMVPISEEEVTQEDVENVVHTAKSVRVRDEHRVLHVIPQEYAIDYQEGIKNPVGLSGVRMQAKVHLITCHNDMAKNIVKAVERCGLKVDQLIFAGLASSYSVLTEDERELGVCVVDIGGGTMDIAVYTGGALRHTKVIPYAGNVVTSDIAYAFGTPPSDAEAIKVRHGCALGSIVGKDESVEVPSVGGRPPRSLQRQTLAEVIEPRYTELLNLVNEEILQLQEKLRQQGVKHHLAAGIVLTGGAAQIEGLAACAQRVFHTQVRIGAPLNITGLTDYAQEPYYSTAVGLLHYGKESHLNGEAEVEKRVTASVGSWIKRLNSWLRKEF", "note": "[E69P]", "effect of a mutation on the interaction": "decreasing interaction strength"}, {"variant": "R286W", "effect of a mutation on the interaction": "increasing interaction strength"}]}, {"variants_of": "B2", "conditions": "with ftsn_ecoli ftsN", "values": [{"variant": "MIKATDRKLVVGLEIGTAKVAALVGEVLPDGMVNIIGVGSCPSRGMDKGGVNDLESVVKCVQRAIDQAPLMADCQISSVYLALSGKHISCQNEIGMVPISEEEVTQEDVENVVHTAKSVRVRDEHRVLHVIPQEYAIDYQEGIKNPVGLSGVRMQAKVHLITCHNDMAKNIVKAVERCGLKVDQLIFAGLASSYSVLTEDERELGVCVVDIGGGTMDIAVYTGGALRHTKVIPYAGNVVTSDIAYAFGTPPSDAEAIKVRHGCALGSIVGKDESVEVPSVGGRPPRSLQRQTLAEVIEPRYTELLNLVNEEILQLQEKLRQQGVKHHLAAGIVLTGGAAQIEGLAACAQRVFHTQVRIGAPLNITGLTDYAQEPYYSTAVGLLHYGKESHLNGEAEVEKRVTASVGSWIKRLNSWLRKEF", "note": "[E69P]", "effect of a mutation on the interaction": "decreasing interaction strength"}, {"variant": "MIKATDRKLVVGLEIGTAKVAALVGEVLPDGMVNIIGVGSCPSRGMDKGGVNDLESVVKCVQRAIDQAELAADCQISSVYLALSGKHISCQNEIGMVPISEEEVTQEDVENVVHTAKSVRVRDEHRVLHVIPQEYAIDYQEGIKNPVGLSGVRMQAKVHLITCHNDMAKNIVKAVERCGLKVDQLIFAGLASSYSVLTEDERELGVCVVDIGGGTMDIAVYTGGALRHTKVIPYAGNVVTSDIAYAFGTPPSDAEAIKVRHGCALGSIVGKDESVEVPSVGGRPPRSLQRQTLAEVIEPRYTELLNLVNEEILQLQEKLRQQGVKHHLAAGIVLTGGAAQIEGLAACAQRVFHTQVRIGAPLNITGLTDYAQEPYYSTAVGLLHYGKESHLNGEAEVEKRVTASVGSWIKRLNSWLRKEF", "note": "[M71A]", "effect of a mutation on the interaction": "decreasing interaction strength"}]}]}
